Where two headings read alike, the source gives them in different places.
How the values were obtained:
[1] = target: T1, human SIRPβ1 isoform 1 on cells (human, UniProt O00241 30-398); experiment: cell binding titration; target not given
T1 construct: On CHO cells (low level), on BWZ/BW5147.G.1.4 cells (reporter cells co-express human DAP12) or on primary human myeloid cells; also called huSIRPβ1; BWZ-huSIRPβ1

human SIRPα on cells [2] = target: T2, human SIRPα on cells (human, UniProt P78324 31-504); experiment: flow cytometry;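 on FOB: antibody binding to cells detected with a PE-labelled secondary antibody, given as mean fluorescence intensity relative to background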
T2 construct: Whole entry

[3] = target: T3, mouse SIRPβ1 on CHO cells (mouse); experiment: flow cytometry;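 on FOB: antibody binding to cells detected with a PE-labelled secondary antibody, given as mean fluorescence intensity relative to background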
T3 construct: Whole entry
T3 chain: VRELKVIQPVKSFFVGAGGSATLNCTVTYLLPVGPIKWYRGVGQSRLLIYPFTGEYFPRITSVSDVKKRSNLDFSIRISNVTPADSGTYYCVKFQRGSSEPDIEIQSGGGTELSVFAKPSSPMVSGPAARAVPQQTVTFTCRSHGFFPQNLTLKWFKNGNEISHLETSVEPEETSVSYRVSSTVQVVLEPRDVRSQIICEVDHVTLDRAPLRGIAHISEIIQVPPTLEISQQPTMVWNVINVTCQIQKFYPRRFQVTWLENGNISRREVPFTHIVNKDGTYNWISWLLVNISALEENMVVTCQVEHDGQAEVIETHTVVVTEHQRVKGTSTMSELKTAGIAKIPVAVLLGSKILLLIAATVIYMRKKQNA

human SIRPα on cells [4] = target: T2, human SIRPα on cells; experiment: flow cytometry; remark: listed apart in the source;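 on FOB: antibody binding to cells detected with a PE-labelled secondary antibody, given as mean fluorescence intensity relative to background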
Protocol: (§1) Cells were then washed twice and incubated in 100 ul FACS buffer containing 0.5 μg/ml PE-conjugated secondary antibody for 30 minutes on ice. Cells were washed twice in cold FACS buffer and acquired on a BD FACS Canto. Data analysis and calculation of mean fluorescence intensity (MFI) values or 00 positive cells was performed with FlowJo (TreeStar) software version 10.0.7.
(§2) Given the high sequence similarity between receptors of the SIRPβ family, anti-SIRPβ1 antibodies were also screened for cross-reactivity to human SIRPα.

[5] = target: T3, mouse SIRPβ1 on CHO cells; experiment: flow cytometry;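 on FOB: antibody binding to cells detected with a PE-labelled secondary antibody, given as mean fluorescence intensity relative to background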
Protocol: as §1, §2

[6] = target: T1, human SIRPβ1 isoform 1 on cells; experiment: flow cytometry
Protocol: as §1, §2

[7] = target: T4, human SIRPα domain 1 (D1) Fc fusion (human, UniProt P78324 32-149); experiment: Octet, IgG avid
T4 construct: also called human SIRPα D1-Fc; Human SIRPα Fc; not shown: C-terminal human IgG1 Fc

[8] = target: T5, human SIRPβ1 domain 1 (D1) Fc fusion (human, UniProt O00241 30-148); experiment: Octet, Fab monovalent
T5 construct: Made in HEK293/T cells with a heterologous signal peptide; also called Human SIRPβ1 D1-Fc; Human SIRPβ1-Fc; not shown: C-terminal human IgG1 Fc
T5 sequence (O00241 30-148 limits assumed): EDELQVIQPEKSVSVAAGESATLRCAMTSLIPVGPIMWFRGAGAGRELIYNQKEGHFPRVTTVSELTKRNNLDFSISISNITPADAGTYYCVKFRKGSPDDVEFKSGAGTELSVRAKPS

[9] = target: T5, human SIRPβ1 domain 1 (D1) Fc fusion; experiment: Octet, Fab monovalent; remark: listed apart in the source
Protocol: Briefly, Octet® affinity measurements were performed by loading IgGs on-line onto AHQ sensors. Sensors were equilibrated off-line in assay buffer for 30 min and then monitored on-line for 60 seconds for baseline establishment. For avid binding measurement, sensors with loaded IgGs were exposed to 100 nM antigen (human SIRPα or SIRPβ1 Fc fusion) for 3 min, and then transferred to assay buffer for 3 min for off-rate measurement. Additional avid binding was determined by loading biotinylated SIRPβ1 monomer on SA sensors and exposuring to 100 nM IgG in solution. Monovalent binding measurements were obtained by loading human SIRPβ1 Fc fusion antigens to AHQ sensor, followed by exposure to 100 nM anti-SIRPβ1 antibody Fab. Additional monovalent measurements were made by loading biotinylated human SIRPβ1 monomer to SA sensor followed by exposure to 100 nM Fab in solution. Kinetics data were fit using a 1:1 binding model in the data analysis software provided by ForteBio.

T1 sequence (O00241 30-398): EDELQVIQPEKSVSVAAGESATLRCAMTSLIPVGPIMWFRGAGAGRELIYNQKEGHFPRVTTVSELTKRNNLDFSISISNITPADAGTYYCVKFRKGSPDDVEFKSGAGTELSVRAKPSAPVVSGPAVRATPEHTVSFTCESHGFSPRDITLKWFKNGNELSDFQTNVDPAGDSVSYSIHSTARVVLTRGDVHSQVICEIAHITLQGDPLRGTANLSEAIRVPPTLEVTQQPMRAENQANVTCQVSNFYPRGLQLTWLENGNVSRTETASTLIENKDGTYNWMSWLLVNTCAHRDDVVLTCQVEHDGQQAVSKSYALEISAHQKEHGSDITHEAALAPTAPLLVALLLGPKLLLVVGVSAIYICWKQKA

B1: SB-1-4 (antibody, V domains shown)
VH: QVQLVESGGGVVQPGGSLRLSCAASGFTFSAYGMNWVRQAPGKGLEWVSAIRASGGATYYADSVKGRFTISRDNSKNTLYLQMNSLRAEDTAVYYCAKDFTEVVGWLGMDVWGQGTTVTVSS
VL: EIVMTQSPGTLSLSPGERATLSCRASQSVSSSYLAWYQQKPGQAPRLLIYGASSRATGIPDRFSGSGSGTDFTLTISRLEPEDFAVYYCQLLGSSPRTFGGGTKVEIK
notes: IgG
In the case of B1, the EC50 [1] is reported as 0.073 nM, the binding result (human SIRPα on cells [2]) is reported as “no binding (tested: 1 ug/ml)” and the binding result [3] is reported as “no binding (tested: 1 ug/ml)”. For the same binder, the FOB (human SIRPα on cells [4]) was 1 fold over background, the FOB [5] was 1 fold over background and the FOB [6] was 3 fold over background. B1: no binding (tested: 100 nM) [7].

B2: SB-1-5 (antibody, V domains shown)
VH: QVQLVESGGGVVQPGRSLRLSCAASGFTFSAYGMNWVRQAPGKGLEWVSAISASGRSTFYADSVKGRFTISRDNSKNTLYLQMNSLRAEDTAVYYCAKDFTEVVGWLGMDVWGQGTTVTVSS
VL: EIVMTQSPGTLSLSPGERATLSCRASQSVSSSYLAWYQQKPGQAPRLLIYGASSRATGIPDRFSGSGSGTDFTLTISRLEPEDFAVYYCQLLGSSPRTFGGGTKVEIK
notes: IgG
For B2, the EC50 [1] was 0.038 nM, the binding result (human SIRPα on cells [2]) was “no binding (tested: 1 ug/ml)” and the binding result [3] was “no binding (tested: 1 ug/ml)”. For the same binder, the FOB (human SIRPα on cells [4]) was 1 fold over background, the FOB [5] was 2 fold over background and the FOB [6] was 3 fold over background. B2: no binding (tested: 100 nM) [7].

B3: SB-2-9 (antibody, V domains shown)
VH: QVQLVESGGGVVQPGRSLRLSCAASGFTFKTYGMHWVRQAPGKGLEWVAHIWYEGSNKVYADSVKGRFTISRDNSKNTLYLQMNSLRAEDTAVYYCARDQTAAAAIWGMDVWGQGTTVTVSS
VL: EVVLTQSPGTLSLSPGERATLSCRASQSVSSSYLAWYQQKPGQAPRLLIYGASSRATGIPDRFSGSGSGTDFTLTISRLEPEDFAVYYCQQSSSHPFTFGGGTKVEIK
notes: IgG
B3 was tested, and the EC50 [1] was 0.469 nM, the binding result (human SIRPα on cells [2]) was “no binding (tested: 1 ug/ml)” and the binding result [3] was “no binding (tested: 1 ug/ml)”. It also gave an FOB (human SIRPα on cells [4]) of 1 fold over background, an FOB [5] of 2 fold over background and an FOB [6] of 4 fold over background. B3: no binding (tested: 100 nM) [7].

B4: SB-8-14 (antibody, V domains shown)
VH: QVQLQESGPGLVKPSETLSLTCAVSGYSISPHYYWGWIRQPPGKGLEWIGSIYHSGHTYYNPSLKSRVTISVDTSKNQFSLKLSSVTAADTAVYYCARGGAMTPAGMDVWGQGTTVTVSS
VL: EIVMTQSPGTLSLSPGERATLSCRASQSVSSSYLAWYQQKPGQAPRLLIYGASNRATGIPDRFSGSGSGTDFTLTISRLEPEDFAVYYCQQVYSSPYTFGGGTKVEIK
notes: IgG
In the case of B4, the EC50 [1] is reported as 0.304 nM, the binding result [3] is reported as “no binding (tested: 1 ug/ml)” and the FOB [5] is reported as 1 fold over background. The FOB [6] was 7 fold over background and the Kd [7] was 18.3 nM.

B5: SB-8-16 (antibody, V domains shown)
VH: QVQLQESGPGLVKPSETLSLTCAVSGYSISAHYYWGWIRQPPGKGLEWIGSIFHSGHTYYNPSLKSRVTISVDTSKNQFSLKLSSVTAADTAVYYCARAGAMTPAGMDVWGQGTTVTVSS
VL: EIVMTQSPGTLSLSPGERATLSCRASQSVSSSYLAWYQQKPGQAPRLLIYGASNRATGIPDRFSGSGSGTDFTLTISRLEPEDFAVYYCQQVYSSPYTFGGGTKVEIK
notes: IgG
For B5, the EC50 [1] was 0.147 nM, the binding result (human SIRPα on cells [2]) was “no binding (tested: 1 ug/ml)” and the binding result [3] was “no binding (tested: 1 ug/ml)”. For the same binder, the FOB (human SIRPα on cells [4]) was 1 fold over background, the FOB [5] was 2 fold over background and the FOB [6] was 9 fold over background. B5: no binding (tested: 100 nM) [7].

B6: SB-40-19 (antibody, V domains shown)
VH: QVQLVQSGAEVKKPGASVKVSCKASGYTFTSYYMVWVRQAPGQGLEWMGIINPSSGATNYAQKFQGRVTMTTDTSTSTAYMELRSLRSDDTAVYYCARDTGEYSYSPHGMDVWGQGTTVTVSS
VL: EIVLTQSPATLSLSPGERATLSCRASQSVSSYLAWYQQKPGQAPRLLIYDSSNRATGIPARFSGSGSGTDFTLTISSLEPEDFAVYYCQQRDEHPPWTFGGGTKVEIK
notes: IgG
With B6 the EC50 [1] was 0.713 nM, the binding result (human SIRPα on cells [2]) was “no binding (tested: 1 ug/ml)” and the binding result [3] was “no binding (tested: 1 ug/ml)”. It also gave an FOB (human SIRPα on cells [4]) of 1 fold over background, an FOB [5] of 2 fold over background and an FOB [6] of 3 fold over background. B6: no binding (tested: 100 nM) [7].

B7: SB-40-18 (antibody, V domains shown)
VH: QVQLVQSGAEVKKPGASVKVSCKASGYTFTSYYMAWVRQAPGQRLEWMGWINPAVGATIYSQKFQGRVTITRDTSASTAYMELSSLRSEDTAVYYCARDTGEYSYSPHGMDVWGQGTTVTVSS
VL: EIVLTQSPATLSLSPGERATLSCRASQSVSSYLAWYQQKPGQAPRLLIYDSSNRATGIPARFSGSGSGTDFTLTISSLEPEDFAVYYCQQRDEHPPWTFGGGTKVEIK
notes: IgG
With B7 the EC50 [1] was 0.32 nM, the binding result (human SIRPα on cells [2]) was “no binding (tested: 1 ug/ml)” and the binding result [3] was “no binding (tested: 1 ug/ml)”. The FOB (human SIRPα on cells [4]) was 1 fold over background, the FOB [5] was 2 fold over background and the FOB [6] was 4 fold over background. B7: no binding (tested: 100 nM) [7].

B8: SB-2-10 (antibody, V domains shown)
VH: EVQLLESGGGLVQPGGSLRLSCAASGFTFGSYGMHWVRQAPGKGLEWVSAISGLAGQTYADSVKGRFTISRDNSKNTLYLQMNSLRAEDTAVYYCARDQTAAAAIWGMDVWGQGTTVTVSS
VL: EIVLTQSPGTLSLSPGERATLSCRASQSVSSSYLAWYQQKPGQAPRLLIYGASSRATGIPDRFSGSGSGTDFTLTISRLEPEDFAVYYCQQSSSHPFTFGGGTKVEIK
notes: IgG
For B8, the EC50 [1] was 0.234 nM, the binding result (human SIRPα on cells [2]) was “no binding (tested: 1 ug/ml)” and the binding result [3] was “no binding (tested: 1 ug/ml)”. The FOB (human SIRPα on cells [4]) was 1 fold over background, the FOB [5] was 2 fold over background and the FOB [6] was 4 fold over background. B8: no binding (tested: 100 nM) [7].

B9: SB-2-11 (antibody, V domains shown)
VH: QVQLVESGGGLVQPGGSLRLSCAASGFTFARYGMHWVRQAPGKGLEWVSAISGLAGPTYADSVKGRFTISRDNSKNTLYLQMNSLRAEDTAVYYCARDQTAAWGIWGMDVWGQGTTVTVSS
VL: EIVLTQSPGTLSLSPGERATLSCRASQSVSSSYLAWYQQKPGQAPRLLIYGASSRATGIPDRFSGSGSGTDFTLTISRLEPEDFAVYYCQQSSSHPFTFGGGTKVEIK
notes: IgG
With B9 the EC50 [1] was 0.22 nM, the binding result (human SIRPα on cells [2]) was “no binding (tested: 1 ug/ml)” and the binding result [3] was “no binding (tested: 1 ug/ml)”. It also gave an FOB (human SIRPα on cells [4]) of 0 fold over background, an FOB [5] of 2 fold over background and an FOB [6] of 6 fold over background. B9: no binding (tested: 100 nM) [7].

B10: SB-49 Fab (Fab, V domains shown)
VH: QLQLQESGPGLVKPSETLSLTCTVSGGSISSSDYYWGWIRQPPGKGLEWIGSIYYSGSTYYNPSLKSRVTISVDTSKNQFSLKLSSVTAADTAVYYCARGPTGYKDKWRYYYGMDVWGQGTTVTVSS
VL: DIQMTQSPSSLSASVGDRVTITCQASQDITNYLNWYQQKPGKAPKLLIYDASNLETGVPSRFSGSGSGTDFTFTISSLQPEDIATYYCQQYFHPPLTFGGGTKVEIK
notes: Fab by papain digestion
B10 gave a Kd [8] of 156 nM.

B11: SB-6 Fab (Fab, V domains shown)
VH: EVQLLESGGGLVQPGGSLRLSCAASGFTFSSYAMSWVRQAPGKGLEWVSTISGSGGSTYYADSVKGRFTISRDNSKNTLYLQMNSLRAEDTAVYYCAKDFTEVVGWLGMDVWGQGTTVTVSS
VL: EIVLTQSPGTLSLSPGERATLSCRASQSVSSSYLAWYQQKPGQAPRLLIYGASSRATGIPDRFSGSGSGTDFTLTISRLEPEDFAVYYCQQSGHLPITFGGGTKVEIK
notes: Fab by papain digestion
Work on B11 yielded a Kd [8] of 131 nM.

B12: SB-2-10 Fab (Fab, V domains shown)
VH: EVQLLESGGGLVQPGGSLRLSCAASGFTFGSYGMHWVRQAPGKGLEWVSAISGLAGQTYADSVKGRFTISRDNSKNTLYLQMNSLRAEDTAVYYCARDQTAAAAIWGMDVWGQGTTVTVSS
VL: EIVLTQSPGTLSLSPGERATLSCRASQSVSSSYLAWYQQKPGQAPRLLIYGASSRATGIPDRFSGSGSGTDFTLTISRLEPEDFAVYYCQQSSSHPFTFGGGTKVEIK
notes: Fab by papain digestion
Binder B12 has a Kd [9] of 12.3 nM.

B13: SB-2-11 Fab (Fab, V domains shown)
VH: QVQLVESGGGLVQPGGSLRLSCAASGFTFARYGMHWVRQAPGKGLEWVSAISGLAGPTYADSVKGRFTISRDNSKNTLYLQMNSLRAEDTAVYYCARDQTAAWGIWGMDVWGQGTTVTVSS
VL: EIVLTQSPGTLSLSPGERATLSCRASQSVSSSYLAWYQQKPGQAPRLLIYGASSRATGIPDRFSGSGSGTDFTLTISRLEPEDFAVYYCQQSSSHPFTFGGGTKVEIK
notes: Fab by papain digestion
Work on B13 yielded a Kd [9] of 4.4 nM.

B14: SB-11 Fab (Fab, V domains shown)
VH: QVQLVQSGAEVKKPGSSVKVSCKASGGTFSNYAISWVRQAPGQGLEWMGGIIPIFGTANYAQKFQGRVTITADESTSTAYMELSSLRSEDTAVYYCARPVDSSSYSLGYYYGMDVWGKGTTVTVSS
VL: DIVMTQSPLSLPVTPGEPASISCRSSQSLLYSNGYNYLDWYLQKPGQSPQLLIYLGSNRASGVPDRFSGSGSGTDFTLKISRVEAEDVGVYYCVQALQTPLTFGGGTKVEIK
notes: Fab by papain digestion
For B14, the Kd [8] was 678 nM.

B15: SB-15 Fab (Fab, V domains shown)
VH: QLQLQESGPGLVKPSETLSLTCTVSGGSISSNSYYWGWIRQPPGKGLEWIGSIYYSGSTYYNPSLKSRVTISVDTSKNQFSLKLSSVTAADTAVYYCAREVGAPPSYPFDIWGQGTMVTVSS
VL: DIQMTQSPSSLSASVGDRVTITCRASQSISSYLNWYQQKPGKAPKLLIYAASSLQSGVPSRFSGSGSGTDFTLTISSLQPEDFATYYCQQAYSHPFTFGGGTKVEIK
notes: Fab by papain digestion
Work on B15 yielded a Kd [8] of 407 nM.

B16: SB-17 Fab (Fab, V domains shown)
VH: QVQLVQSGAEVKKPGASVKVSCKASGYTFTSYGISWVRQAPGQGLEWMGWISAYNGNTNYAQKLQGRVTMTTDTSTSTAYMELRSLRSDDTAVYYCARGPLLYGDYHVRYGMDVWGQGTTVTVSS
VL: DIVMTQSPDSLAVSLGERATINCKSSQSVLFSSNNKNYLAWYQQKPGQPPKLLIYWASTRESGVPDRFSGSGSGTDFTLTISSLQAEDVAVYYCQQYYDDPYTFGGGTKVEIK
notes: Fab by papain digestion
Work on B16 yielded a Kd [8] of 246 nM.

From patent US20250026827A1 (Alector, published 2025)
